These results are taken from doi:10.1101/2025.01.28.635281 (bioRxiv, 2025).

For this experiment, the target named is T1, Bacillus subtilis Sfp (Surfactin synthetase activating enzyme, 4'-phosphopantetheinyl transferase) (Bacillus subtilis, UniProt P39135 1-224).
T1 sequence (looked up): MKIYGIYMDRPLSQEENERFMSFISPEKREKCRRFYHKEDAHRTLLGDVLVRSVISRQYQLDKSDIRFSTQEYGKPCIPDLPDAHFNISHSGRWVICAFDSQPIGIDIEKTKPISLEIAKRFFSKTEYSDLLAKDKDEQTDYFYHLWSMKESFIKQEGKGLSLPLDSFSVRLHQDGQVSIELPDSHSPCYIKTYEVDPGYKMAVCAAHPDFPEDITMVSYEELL
Briefly: NMR titration.

B1: S36A mutant of E. coli acyl carrier protein (natural protein)
chain: STIEERVKKIIGEQLGVKQEEVTNNASFVEDLGADALDTVELVMALEEEFDTEIPDEEAEKITTVQAAIDYINGHQA
As to B1, the binding result is “binds”.
